Experimental data from the supplement of paper PMC10567573.

B1: HESX1 (parent)
chain: ENKPSTCSFSIERILGLDQKKDCV
B2: ZC3H15 (parent)
chain: RKADFKAGKALVISGREVFEFRPE

Variants of: B1
Test: protein stability index of a GFP-peptide fusion (GPS, HEK-293T) (PSI 1-6); higher = more stable
Details: c terminus: a fixed tail appended
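Note: lentivirally expressed fusions sorted by FACS into six bins by GFP to DsRed ratio, PSI derived from sequencing read proportions per bin multiplied by bin number.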

Protein stability index, by site and new letter:
P4: G 2.84; C 2.42; F 2.62; D 3.86; A 2.99; H 2.52
K3: Q 3.41; H 3.42; W 2.93; S 3.84; Y 2.83; P 3.17; F 2.16; A 3.59; R 2.58; G 3.1; D 3.66; N 3.04; M 2.92; E 3.85; T 2.53; L 2.35; C 2.78; V 2.71; I 2.84
E1: G 2.32; C 2.27; M 2.45; Q 2.28; W 2.37; Y 1.95; F 1.92; R 2.79; K 1.68; P 2.79; A 2.61; T 2.85; D 3.29; I 2.68; S 2.37; V 2.32; N 2.77; H 2.73; L 2.13
N2: C 2.57; Q 2.93; P 2.82; K 3.37; L 2.79; G 2.49; V 2.88; D 2.94; S 2.87; H 2.57; R 2.88; F 1.97; W 1.91; Y 1.77; I 2.32; E 3.52; M 2.53; A 2.15; T 2.91

Variants of: B2
Test: as above
Details: c terminus: a fixed tail appended

Protein stability index, by site and new letter:
V12: L 2.42; N 3.93; F 2.39; R 3.31; I 2.85; P 3.82; Y 2.73; H 3.52; S 3.47; T 2.68; C 2.89
P23: W 1.24; T 3.17; Y 1.9; S 3.44; I 1.35; N 3.53; M 2.09; G 3.18
E17: V 2.25; N 2.57; W 2.12; G 2.3; S 2.06; M 1.14; K 2.08; R 2.67; F 2.17; L 2.04; T 1.75; I 1.64; Y 2.19
I13: Y 2.77; H 3.13; C 3.2; E 4.28; P 3.48; W 2.8; S 3.8; N 3.95; V 3.51; M 3.26
R22: K 3.24; Q 3.83; I 2.81; C 2.24; L 2.35; H 2.72; T 3.03; F 2.98; N 3.07; E 3.53; M 3.54; Y 2.84; V 2.78
A10: Q 3.17; E 2.97; I 2.09; D 3.5; L 2.09; N 3.16; Y 1.92; G 2.86; F 1.53; W 2.97
R16: S 3.21; W 1.92; I 1.92; L 2.42; Y 1.54; D 3.69; V 1.91; E 3.7; F 1.65; T 2.99; C 1.89; Q 3.61; H 2.98; G 2.99; K 3.38; P 3.27
K2: T 3.06; N 3.24; C 1.85; A 3.43; H 2.46; Q 3.23; V 2.49; I 1.92; Y 2; R 2.78; W 1.94; L 1.76; M 2.33; S 3.02
K6: Y 2.87; D 3.75; L 2.29; I 2.42; M 2.36; G 2.4; R 2.29; A 2.71; T 2.99
